Values of other authors in patent EP1140148B1, “SHELF-STABLE SOLUTION FORMULATION OF GLUCAGON-LIKE PEPTIDE-1” (ELI LILLY AND COMPANY, priority 1998, dated 2005).

Settings: stored at 4° C; as early as; Mojsov 1992

## GLP-1(7-37): Glucagon-like peptide-1 (7-37), insulinotropic peptide hormone
  by-products found after sample preparation: eleven
